# What was measured:
# [1] = target: Porcine circovirus (PCV) grown in PS cell culture (porcine circovirus); assay: ELISA, PCV supernatant adsorbed to the plate at virus dilution 1:200
# [2] = target: Porcine circovirus (PCV) grown in PS cell culture (porcine circovirus); assay: ELISA, PCV supernatant adsorbed to the plate at virus dilution 1:6400
# [3] = target: Porcine circovirus (PCV) grown in PS cell culture (porcine circovirus); assay: ELISA, PCV supernatant adsorbed to the plate at virus dilution 1:3200
# [4] = target: Porcine circovirus (PCV) grown in PS cell culture (porcine circovirus); assay: ELISA, PCV supernatant adsorbed to the plate at virus dilution 1:800
# [5] = target: Porcine circovirus (PCV) grown in PS cell culture (porcine circovirus); assay: ELISA, PCV supernatant adsorbed to the plate at virus dilution 1:400
# [6] = target: Porcine circovirus (PCV) grown in PS cell culture (porcine circovirus); assay: ELISA, PCV supernatant adsorbed to the plate at virus dilution 1:1600
substance,measurement,setting,value
Human immunoglobulin concentrate (Beriglobin P),extinction,[1],> 2 extinction
same,extinction,[2],0.381 extinction
same,extinction,[3],0.268 extinction
same,extinction,[4],1.17 extinction
same,extinction,[5],1.98 extinction
same,extinction,[6],0.726 extinction

# From patent US6573081
